Test results as given in publication PMC5344537.
Where “and” joins values, the source holds several entries; their conditions need not be identical. Equal values may be shown once.

How the values were obtained:
[1] = biological target: intercellular adhesion molecule-1 (ICAM-1) of epithelial cells (human (endogenous in primary tonsil, cervical and foreskin keratinocytes)) (UniProt P05362)
[2] = biological target: intercellular adhesion molecule-1 (ICAM-1) of epithelial cells (human (endogenous in primary tonsil, cervical and foreskin keratinocytes)) (UniProt P05362); remark: listed apart in the source

Sequence of UniProt P05362 (P05362 28-532): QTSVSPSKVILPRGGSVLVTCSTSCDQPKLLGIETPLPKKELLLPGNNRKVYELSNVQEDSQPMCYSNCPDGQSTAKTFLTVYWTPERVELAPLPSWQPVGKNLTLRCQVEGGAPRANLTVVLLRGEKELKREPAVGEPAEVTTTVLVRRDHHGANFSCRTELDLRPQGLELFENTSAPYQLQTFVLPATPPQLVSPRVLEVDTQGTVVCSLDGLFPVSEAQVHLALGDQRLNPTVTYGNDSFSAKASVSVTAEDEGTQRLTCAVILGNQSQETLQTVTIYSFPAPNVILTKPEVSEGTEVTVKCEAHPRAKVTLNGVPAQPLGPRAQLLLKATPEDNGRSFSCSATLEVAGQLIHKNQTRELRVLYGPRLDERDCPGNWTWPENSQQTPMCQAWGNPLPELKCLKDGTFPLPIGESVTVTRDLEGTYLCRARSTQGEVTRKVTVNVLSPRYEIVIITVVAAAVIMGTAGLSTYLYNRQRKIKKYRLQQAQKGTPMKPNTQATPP

lymphocyte receptor function-associated antigen-1 (LFA-1) (from UniProt P20701 26-1170; P05107 23-769) (complex)
reduction of HIV-1 SF33 spread from AP and BL surfaces of polarized tonsil epithelial cells to activated PBMC, in the presence of antibodies against ICAM-1 and LFA-1 (ELISA p24 of PBMC after 7 days) [1]: 65 to 70% | reduction of HIV-1 SF33 spread from AP and BL membranes of polarized cervical and foreskin epithelial cells to activated PBMC, in the presence of antibodies to LFA-1 and ICAM-1 (ELISA p24) [2]: 40% and 50% | reduction of spread of R5-tropic HIV-1 SF170 from polarized cervical and foreskin epithelial cells to CD4+ T lymphocytes, in the presence of antibodies to LFA-1 and ICAM-1 (ELISA p24) [2]: 70% | reduction of spread of X4-tropic HIV-1 92UG029 from polarized cervical and foreskin epithelial cells to CD4+ T lymphocytes, in the presence of antibodies to LFA-1 and ICAM-1 (ELISA p24) [2]: 50%
